Data reported in a protein production outcome set (Wang et al. 2014).

experiment: label from the status in PepcDB records

| Sequence | protein production |
| --- | --- |
| MYSLFQEGRKMKNTAFLITKNHYPKDYRLKKSPDSDSAMGVAKRILAEVMIFRRVPETISLCGTGCQKCASPHLPKIISAVNKNEPVTFILPAFPGKSPNPEKVLGHLPDHAERLSLNFLGTLCQRIKNFYTPGIKIILCSDGRVFSDVVGMNESDVTAYQLELDRLIKEMSLADLSTFNLDYFYKDLHFVQMREELMKSYGQSLDFLKQKIRNGAKPSASPDEQEANRMYSGITRFLFEDAMHAGQTKSRTAIQKESRFKAYEVIRRSNAWSALIAERFPKAVRLSIHPQTCGSKKLGIRLIGNESWMTPWHGVAVESNKGYVLLRRSEAEALGAKLICSSDGRHSHYQLMAEVSYELLEHHHHHH | not failed |
| MYSRLPTTYELIEALQASPQAGPAAESRLATVLWAGFVLALVPMLVAGGALVWWHRVLAQVPPAWLPQVFHVLLAVCGVFYVGAWVIRLLDRRAALQHPLRWLTRRLDTQSEVENALLLRLGRIPALQLRARQRRVVLQARLWDASARTMALVLAIGPAAVILADGVAVMAPGGVPALVAIYGAVLVAGCALALFAQLQCSAPLRRLAHVLGEAAEINEAVNRQRQP | failed |
| MYTITDIAPTDAEFIALIAALDAWQETLYPAESNHLLDLSQLPPQTVIALAIRSPQGEAVGCGAIVLSEEGFGEMKRVYIDPQHRGQQLGEKLLAALEAKARQRDCHTLRLETGIHQHAAIALYTRNGYQTRCAFAPYQPDPLSVFMEKPLFADLRSAAL | not failed |
| MYTKGSVSTRIAKYLFIILIVAGVISSLSLAIMSSNKYDAEAINISGSLRMQSYRLLYEMQEQPESVETNLRRYHISLHSSALLEVQNQFFTPNVLKHSYQNILQRWTNMEKYARQQDVKNYSKQLTDYVADVDYFVFELQRFSEQKWILGVSVLGFAMLLILLMVSYVIWYTNREVVKPLHLMTKASMQVQMRQFNHIPLDTRKQNELGTLARVFTQMSTELGQLYSRLEEAVNEKTQKLRQTNRTLSTLYQSAQLLNTNTINDKILNQVLNYIFISDHLNFVKVEVMGAEHWDITLGKQDANNELQIETLSVDNEELGVLSWQAGLPCPDPRIMQNLAQMLARALYFHKNLRQKEQLLLMEERSIIARELHDSLAQVLSFLQIQLTLLKHNLKKEDEQSKEKSLAIIANFEQALSGGYAQLRELLATFRLTIQEANLQLALKQVIDSLRSQTTMQMNVNCQLPSQSLNPQQLVHVLQIVREATTNAIKHSQGTVIEISARINAEGEYEILVEDDGVGIPNLEEPEGHYGLNIMAERCRQLNAQLHIHRREQGGTQVKITLPHTLY | failed |
| MYVTKRLSEYKRNPSELTLLPTEGPNSGVLVIQDEESRPTLKCCFVNSFDWELNGLPFPQNTRVIVKRQIGTALYLDPVAFIPVLHQPPSSNLYYVIRGSGKHTGEACVSAKEGDRASCCFCFTYIPEAVPRPLDPFDINQQFEIHQGRSSTKKFFATSVASDGIPPQFLTRKGWSVIFSAPEVEDYGLIDDAKGIVDAKLRYELPDLDNSVVVGKWYVPFLFVKEGDAKDQMYKSMYYSMTLQQRFEEVFFCENVGNNKRFEVVVDVEVETEVVKLEGERIARETQGVNSDGVVWFNASGNEKIGLGSVVLERMKWEEERFGWLNKGYEQRSSIKRTERFEGGGPYWKSYRCYVLVETFELKRTDGSLVLTYEFKHVDKLKSKWD | failed |
| NAGFECGTEYLNFDEQPATMLDANLLSVEEGYPVTIIERLRTADGEPVVYCLDKIAKKELTCTEYQMSNGSILSAIKEQSNHNICYADTEIEAVNYEPRISEVLNASPHEGLILLKITHYNELDEPILYSLNYMKNSLVQ | failed |
| NAKAESVSSGEFNRLRLALLALEARHSKRLGVLILDEIDSNLSGEESEGVARVLQELSRSYQILAISHQPHMPSYAHRHFLVKKEAKGSTIERLDRE | failed |
| NCKKIGEDSKIIIRQITDNDLELLMAWRSNPLIYKFFYIQKEPLKWEEHYSWWMSRENRVDWIILLRENNTIRKVGSVNVSQLNTDNPEIGILIGEFFLWGKHIGRHSVSLVLKWLKNIGYKKAHARILENNIRSIKLFESLGFKKTKKGRENEWIYEVNL | not failed |
| NDPDADRFAVAARKADGEYQMLTGDQVGSLFGHYLLSQTDAHRQLVGNTIVSSSLLSKIAAAHGARYYQTLTGFKWLTNVAMQEQTEQHQFLFAYEEALGYTIGSTVWDKDGLSALVAFAQLAAELNAQGKTVWDQLEALYRQHGLHVN | failed |
| NDVFSDEVKKIDDNTFIVEGRMPLDDFNKMFHVELPARGVDTVAGFVLTLTGTIPEEDDKVVVEYDTLRFTVEEMNDARLVSVRVEKDI | failed |
| NELEKGNDGSGTVDPVNASTLVNVYSDKSGSEASLLVGDVLVKDSRTLTLNVPAACEKVYMKYNTVSGTEATKEFALSPVSRGVDQSTGFNFETNRLASVTLALPEDAVQPTNETDQGYLFYHNTGVVMFEDGWPIQLDSWYDEDFNDVVFEYDLKVTECHSQQMMETVGGKEELLLTLDVRAVGGIYPTVLGVVLDGLKSEYVDRITASLILKGGQGTMTDLAKEELSTKNIVKVENKNWNWSNDTRKEPRFAILTVDKAQAEGTVITLDGLTSLMDNNQDMFQVTQGKVREGLPMLRAEVRLIGKEGLTGAERDAQLAAFRELILDTNRQNFFIKVNGGKEIHMRGYAPTSAYKAEYEALVAGDTTLDANVYYSNTKGSTWGVKLPVGTRHAYERVPFREAYPDFTKWVDSKGVSNQKWYENFVDEKTIRYW | not failed |
| NIKNILSERVSAAMVAAGLPEGTNPAISLSNRPQFGDYQANGVMGAAKKLKTNPRELATKVVAELDLDGIASKIELAGPGFINIHLDESWLAAQLNEVAQDDFIGVAQRGTT | not failed |
| NITPLKEVQLALAEREAMMQALFDQASQFTALLTPTGKVVKVNQRALDFAGITVDEIVDQDFWETPWWQASEQLKADLKSAIHQAAQGILIRYDVENLGNNGQKVILDFSIRPIYDTDQRIIFLLCEGRDITDKFRIQEALAESEERFRQTFQTTAVSSALISLD | failed |
| NIYDSANELSRGLRGLPEYKAVKAAKDAIAADAEASKIFTDYLAFQEEIQKLAQTGQMPDASFQAKMEGFGKQIQGNSLLSEFFTKQQQLAIYLSDIEKIVFEPVSEL | failed |
| NKEFTWTSALTFTLNNEKVKSLIGGTADHVKNEDYYLSIGYPVNSFYAPKIDGMWQLGEETDAAAFGCAPGDIKINVPGMIKEADGKFYKVGDDGQPLTDKNGDIIYYTKDNKYTYSDADSQVLGHNAPKWTMGFQNSFTYKNFDLTIYAYFRWGQMINYEMLGWYDSTGKGNFPTYFNYWTESNPSNDFPALNANRETKSYIGYGSLNYVDGSFFKIKNITLGYTFPERLLKNAGISKCRLYATITNPLTVAKSHLLKDYDPEMNGALKYPLSKQLVFGVNVSF | failed |
| NKSIRMTPSQVAFEIRGTLLPGEVFAICGSCDALGNWNPQNAVALLPENDTGESMLWKATIVLSRGVSVQYRYFKGYFLEPKTIGGPCQVIVHKWETHLQPRSITPLESEIIIDDGQFGIHNGVETLDSGWLTCQTEIRLRLHYSEKPPVSITKKKLKKSRFRVKLTLEGLEEDDDDRVSPTVLHKMSNSLEISLISDNEFKCRHSQPECGYGLQPDRWTEYSIQTMEPDNLELIFDFFEEDLSEHVVQGDALPGHVGTACLLSSTIAESGKSAGILTLPIMSRNSRKTIGKVRVDYIIIKPLPGYSCDMKSSFSKYWKPRIPLDVGHRGAGNSTTTAQLAKVQENTIASLRNAASHGAAFVEFDVHLSKDFVPVVYHDLTCCLTMKKKFDADPVELFEIPVKELTFDQLQLLKLTHVTALKSKDRKESVVQEENSFSENQPFPSLKMVLESLPEDVGFNIEIKWICQQRDGMWDGNLSTYFDMNLFLDIILKTVLENSGKRRIVFSSFDADICTMVRQKQNKYPILFLTQGKSEIYPELMDLRSRTTPIAMSFAQFENLLGINVHTEDLLRNPSYIQEAKAKGLVIFCWGDDTNDPENRRKLKELGVNGLIYDRIYDWMPEQPNIFQVEQLERLKQELPELKSCLCPTVSRFVPSSLCGESDIHVDANGIDNVENA | not failed |
| NLKVKGARDVFEYMKGRIPDETKEHLFVLFLSTKNQILRHETITIGTLTASLIHPREIFKAAIRESAHSIILVHNHPSGDVQPSNADKQVTSILKKAGDLLQIELLDHVIVGNNDWFSFRDHALL | not failed |
| NMPRLRMLMSAFPKGGDLHHHLAGAIDAETMLQWAGDQNLCIDTIKLSVIPSPCDAAVNKKPAKNLERQDPILWNKLIDVFSMRNYHFDVAAGEHSGHDHFFSSFFHFAAALDNNFGRMIAYSRRDAAANNLLYIETMQNPKVVSTFARSVLQDAKGKNSPEDLWKVVKDRLPAAVAAAKAETTEAEAQSRQILQCDGRQPDPACSVTMRYMVFAVRAMPPEMVFAQLALGFALAHSDPRWVGVNIVAPEDGAVSMQDYDLHMQFFRFLRQLYPDVKITLHAGELALPLVPTAGLRDHIRKAVFVAGADRIGHGIDIGSEMNPVEILHHMAERPVPVEINLSSNDAILNIKGNQHPFALYRQYNVPVVISTDDAGVSRNDLTTEYMRAIEEQHVSYSDLKKLSRDSLEYAFLSGEGLWQKNTGESVKPVCSGIAFTAMPQGKCADFLVKNDKAALQWKLEAAFIRYEEQVREGA | failed |
| NQEPSGAVRITLSRFAYLLILKPAMAAFCQQYPGIQLEISVYDGTVNIIEERFDLGIRFGDILEGGVVARPLMKPFREGLYASSAYLAEYGVPAMPADLHHHRLIGYRFITNNRILPLILNDHGEQLTVEMPGQLISNDIDVM | failed |
| NQLWTVEEQKKLEQLLIKYPPEEVESRRWQKIADELGNRTAKQVASQVQKYFIKLTKAGIPV | not failed |
| NSDLGGTLQFTSSNPDKAFGARLSQTLGSYDTSRTFMRVDTGEYNGLSAYVSGEKYDADAWKGHNNPQKSDAVNAKINYNFGDNRVSFFHSTSSHDEANLPSLSPSIIQRLGYNWSYYTPDWTRAVNAANGIYTGGVTSAGDATYNASSLRDDELDILNGNFSLTDDLVLDATVYHHHDSGRGNSYYPFVYTSGATTVPSNAIRSTVYGIDRTGFQSSLTYFLGQHEIQAGFWIQSNKNDIARYLFDTTNATPQNHIVKTNGLPLAATVLDQSYNDLTRQFYLRDTYTLLDDRLKLEFGAKNTVTTSTAKGKGGGYASGSLEARDRFLPQVGATYKLNDSDEVFTSYSENMAAFPSGGYSPFFTTQTAVDAQNGFKDLKPETSKTVELGLRRSTKLYSASAAVYNTRFDNRLVAITNCTGIVICQNGVANVGSVTSRGLELSLGLTPNENWRWSNSMSYNHSTYDDDYASGGSTVQVKGKTVVDTPKLMYSSSLDWNWEHWNAGLQGNYISKRYYTYTNDSSVSGYWLANANLGYDCGKLGALKDTTVSLNMVNLFDKRYISTLNTDASAAADPSGNLQILQVGTPRSAFVTLGVKL | failed |
| NSHKVQMEKEIALKQKKFEQKHLQNYTDEIVGLYNEIRGFRHDYAGMLVSMQMAIDSGNLQEIDRIYNEVLVKANHKLRSDKYTYFDLNNIEDSALRSLVAQSIVYARNNGVEFTLEVKDTITKLPIELLDLVRIMSVLLNNAVEGSADSYKKQMEVAVIKMETETVIVIQNSCKMTMTPSGDLFALGFSTKGRNRGVGLNNVKELLDKYNNIILETEMEGSTFRQIIRFKREFE | failed |
| NTMRSFILRARSAPTDSQRLLDEIGGKCHTEILAHCMMNSLFTAQSHREDVVIHLVLESTRDYSRTITVEANEISDVGGFHEAALIALLVKALDASVGMGKEQTRVVQPGLTVRTISFEALLGELAEHHSLYMMDKKGDSIRDIKIGPNPCFILTDHIPMPKKSGNSMKRLGVEKISLGPKMLFASQCVTLIHNEIDHQEA | failed |
| NWKTRLRMLNHFPKPTFEDIPLLDLALSDEKVPVRRQAIVLLGMIESKEILPYLYKGLRDKSPAVRRTAGDCISDLGYPEALPEMVLLLDDPQKIVRWRAAMFIFDEGNAEQLPALKAHINDNAFEVKLQIEMAISRIENGDEALGSVWKQMAN | failed |
| NYLRDQVVMVGYGEVGRRITKTLMQQEIKVVIAEENREIVEDLRKKGIAAVSGEATEPSVLIQAHIMHARMLILSPMDILDIHRIVDIAKQLNPQIEVLCCAENKEEAEIIRQDEIGLVFYAKEEMAKNMSHHILGQIERAHHLSLGH | failed |
